Where two headings read alike, the source gives them in different places.

The target of assay [1] is T1, active hMMP-9(cat)_His6 (UniProt P14780 107-449). The assay is described as follows: enzyme inhibition; substrate peptide.
Another assay has as its target T109F. The assay is described as follows: substrate peptide degradation inhibition.
A further assay concerns the target I198V. The assay is described as follows: substrate peptide degradation inhibition.
The target of another assay is E111P. The assay is described as follows: substrate peptide degradation inhibition.
The next assay deals with Q108N. The assay is described as follows: substrate peptide degradation inhibition.
The next assay concerns the target P180A. The assay is described as follows: substrate peptide degradation inhibition.
The target in the next assay is G112R. The assay is described as follows: substrate peptide degradation inhibition.
The target in another assay is G186A. The assay is described as follows: substrate peptide degradation inhibition.
In a further assay the target is D113K. The assay is described as follows: substrate peptide degradation inhibition.
A further assay concerns the target S413Q. The assay is described as follows: substrate peptide enzyme inhibition.
For another assay, the target named is P421A. The assay is described as follows: substrate peptide enzyme inhibition.
In assay [2] the target is T1, active hMMP-9(cat)_His6. The assay is described as follows: enzyme inhibition; substrate peptide. The source holds these as a separate data set.
Another assay deals with L114P. The assay is described as follows: substrate peptide degradation inhibition.
In the next assay the target is P196T. The assay is described as follows: substrate peptide degradation inhibition.
Another assay deals with L418A. The assay is described as follows: substrate peptide enzyme inhibition.
For a further assay, the target named is D410E. The assay is described as follows: substrate peptide enzyme inhibition.

T1 sequence (P14780 107-449): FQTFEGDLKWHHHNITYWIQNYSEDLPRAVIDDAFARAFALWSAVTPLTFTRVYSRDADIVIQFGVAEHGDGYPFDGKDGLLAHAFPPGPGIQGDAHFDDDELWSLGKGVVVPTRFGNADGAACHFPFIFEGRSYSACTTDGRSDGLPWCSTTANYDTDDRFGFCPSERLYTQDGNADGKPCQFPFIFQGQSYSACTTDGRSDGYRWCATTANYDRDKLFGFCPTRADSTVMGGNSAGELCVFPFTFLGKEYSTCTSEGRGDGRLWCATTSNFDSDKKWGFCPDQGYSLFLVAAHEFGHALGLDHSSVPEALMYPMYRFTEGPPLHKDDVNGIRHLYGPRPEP

B1: M91002_G0 (designed binder)
chain: GSGMKETAAAKFERQHMDSPDLGTDDDDKAMAENLYFQGDPQFGLFSKYRTPNCRTGRGPACQMGFQPVCGSDMSTYANECTLCMKIREGGHNIKIIRNGPC
Usually IC50 stands for the concentration that gives 50% inhibition. A lower IC50 goes with greater potency. As for B1, in the assay with active hMMP-9(cat)_His6 [1], the IC50 came out at 3.6 nM.

B2: M91011 (designed binder)
chain: GSGMKETAAAKFERQHMDSPDLGTDDDDKAMADIGSANSDPQFGLFSKYRTPNCMMYKYAQCSHKSQPVCGSDMSTYANECTLCMKIREGGHNIKIIRNGPCGASAAA
Consider B2, for which the IC50 came out at 15 nM in the assay with T109F; 16 nM in the assay with I198V; 23 nM with E111P; 21 nM with Q108N; 24 nM with P180A; 15 nM in the assay with G112R. Besides, the IC50 with G186A is 16 nM; with D113K it was 21 nM; with S413Q, 28 nM; with P421A it was 8.7 nM.

B3: M91002_G2 (designed binder)
chain: GSGMKETAAAKFERQHMDSPDLGTDDDDKAMAENLYFQGDPQFGLFSKYRTPNCRTGRGPACQMGFQPVCGSDMSTYANECTLCMKIREGGHNIKIIRNGPCGG
In the assay with active hMMP-9(cat)_His6 [1], B3 showed an IC50 of 3.5 nM. In other words, the single-digit nanomolar range.

B4: M91002_G3 (designed binder)
chain: GSGMKETAAAKFERQHMDSPDLGTDDDDKAMAENLYFQGDPQFGLFSKYRTPNCRTGRGPACQMGFQPVCGSDMSTYANECTLCMKIREGGHNIKIIRNGPCGGG
For B4, in the assay with active hMMP-9(cat)_His6 [1], the IC50 worked out at 3.5 nM.

B5: M91005_D1G-Fc-01 (Fc fusion)
chain: GSGMKETAAAKFERQHMDSPDLGTDDDDKAMADIGSANSGPQFGLFSKYRTPNCRKRGGPSCQMSYNPVCGSDMSTYANECTLCMKIREGGHNIKIIRNGPCGASAAAGGGGSDKTHTCPPCPAPELLGGPSVFLFPPKPKDTLMISRTPEVTCVVVDVSHEPEVKFNWYVDGVEVHNAKTKPREEQYNSTYRVVSVLTVLHQDWLNGKEYCKVSNKALPAPIEKTISKAKGQPREPQVYTLPPSREEMTKNQVSLTCLVGFYPSDIAVEWESNGQPENNYKTTPPVLDSDGSFFLYSKLTVDKSRWQQNVFSCSVMHEALHNHYTQKSLSLSPGK
The molecule B5 yielded an IC50 with active hMMP-9(cat)_His6 [2] of 4.3 nM.

B6: M91005 (designed binder)
chain: GSGMKETAAAKFERQHMDSPDLGTDDDDKAMADIGSANSDPQFGLFSKYRTPNCRKRGGPSCQMSYNPVCGSDMSTYANECTLCMKIREGGHNIKIIRNGPCGASAAA
B6: the IC50 with T109F came out at 15 nM; with I198V it was 16 nM; with L114P it was 22 nM; with E111P, 31 nM; in the assay with Q108N, 20 nM; in the assay with P180A, 25 nM. Further, the IC50 with P196T turned out to be 18 nM; with G112R, 19 nM; with G186A, 15 nM; with D113K it was 21 nM; in the assay with L418A it was 9.3 nM; in the assay with S413Q, 30 nM. Also, the IC50 is 23 nM in the assay with P421A and 22 nM with D410E.

(Values after patent US20200231654A1 (published 2020).)
